Here are results for 28 molecules from patent US20230265179A1 (TWIST BIOSCIENCE, published 2023).

Where only a bound is given, the exact number is not on record here.

Assay [1] concerns the target T1, CD40L over-expressed on Expi293 cells (UniProt P29965 1-261, limits assumed).
T1 construct: whole, on cells; also called cytokine over-expressing Expi293 cells
T1 sequence (looked up): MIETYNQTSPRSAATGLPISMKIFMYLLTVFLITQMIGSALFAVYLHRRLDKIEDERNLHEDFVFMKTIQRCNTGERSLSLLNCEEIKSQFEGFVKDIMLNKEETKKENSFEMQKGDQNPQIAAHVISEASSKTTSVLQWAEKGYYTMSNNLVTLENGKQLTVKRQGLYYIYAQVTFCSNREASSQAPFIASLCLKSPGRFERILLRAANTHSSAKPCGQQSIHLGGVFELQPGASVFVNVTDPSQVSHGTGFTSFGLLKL
Put plainly: flow cytometry, 100 nM antibody, CD40L-Expi293 vs parent Expi293 cells.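 Also: ratio is the mean fluorescence intensity on CD40L-overexpressing Expi293 cells divided by the mean fluorescence intensity on parental Expi293 cells.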
Description: All incubations and washes were in buffer containing PBS+1% BSA. MFI Ratio is defined by the mean fluorescence intensity (MFI) of the cytokine over-expressing Expi293 cell over the Expi293 parent cell. […] EC50 was calculated in GraphPad Prism.

Another assay addresses T2, IL1RL1 (UniProt Q01638 19-328, limits assumed).
T2 construct: SPR analyte
T2 sequence (looked up): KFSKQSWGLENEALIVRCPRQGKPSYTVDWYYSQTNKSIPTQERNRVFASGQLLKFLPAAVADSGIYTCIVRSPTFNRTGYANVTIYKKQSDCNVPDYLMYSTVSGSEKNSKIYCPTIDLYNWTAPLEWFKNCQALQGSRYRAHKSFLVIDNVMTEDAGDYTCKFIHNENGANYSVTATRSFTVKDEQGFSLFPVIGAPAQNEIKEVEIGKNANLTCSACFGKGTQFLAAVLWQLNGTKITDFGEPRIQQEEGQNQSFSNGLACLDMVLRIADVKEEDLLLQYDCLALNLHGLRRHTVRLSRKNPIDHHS
Kind of assay: SPR (Carterra LSA), antibody amine-coupled, 1:1 model.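 Also: HC30M sensor chip at 25 °C in HBS-TE, analyte at rising concentrations in buffer containing 0.5 mg/mL BSA, 5 min association then 15 min dissociation.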

B1: CD40L-128 (VHH)
VHH: EVQLVESGGGLVQPGGSLRLSCAASGLTFGTHVMGWFRQAPGKEREFVASIDWSGRSTYYADSVKGRFTISADNSKNTAYLQMNSLKPEDTAVYYCAADVWGLGYDWGQGTLVTVSS
Take B1: in assay [1], the “100 nM FACS (MFI Ratio)” value came to 1.6 ratio.

B2: IL1RL1-84 (Fc fusion, not shown: a dimerising Fc or GST)
VHH: EVQLVESGGGLVQPGGSLRLSCAASGGIISNYHMGWFRQAPGKEREGVAAIYSDGSTYYADRVKGRFTISADNSKNTAYLQMNSLKPEDTAVYYCAARPVRVDDISLPVGFDWGQGTLVTVSS
notes: VHH-Fc on IgG2 Fc
As to B2, in the assay with IL1RL1, the equilibrium dissociation constant (Kd) (as a rule, the constant that tells how readily two partners part at equilibrium) was ≤ 0.0673 nM; the koff (as a rule, the rate constant with which the complex falls apart) is ≤ 1e-05 s⁻¹; the kon (in general, a measure of how fast the partners come together) stood at 149000 M⁻¹ s⁻¹.

B3: CD40L-71 (VHH)
VHH: EVQLVESGGGLVQPGGSLRLSCAASGSIDNIHAMGWFRQAPGKERKFVAVIYSSDGSTLYADSVKGRFTISADNSKNTAYLQMNSLKPEDTAVYYCAAEPYGSGSSLMSEYDWGQGTLVTVSS
Regarding B3, in assay [1], the “100 nM FACS (MFI Ratio)” value came out at 5.9 ratio.

B4: CD40L-132 (VHH)
VHH: EVQLVESGGGLVQPGGSLRLSCAASGSIDRINAMGWFRQAPGKEREFIAVIYWRDGSSLYADSVKGRFTISADNSKNTAYLQMNSLKPEDTAVYYCAAEPYGSGSSLISEYDWGQGTLVTVSS
B4: the “100 nM FACS (MFI Ratio)” value in assay [1] stood at 3.9 ratio.

B5: CD40L-97 (VHH)
VHH: EVQLVESGGGLVQPGGSLRLSCAASGGTFGHYAMGWFRQAPGKEREFVAVIYSSDGSTLYADSVKGRFTISADNSKNTAYLQMNSLKPEDTAVYYCAAEPYGSGSSLISEYDWGQGTLVTVSS
For B5, the “100 nM FACS (MFI Ratio)” value in assay [1] was found to be 8.9 ratio.

B6: CD40L-123 (VHH)
VHH: EVQLVESGGGLVQPGGSLRLSCAASGRTFSIYAMGWFRQAPGKEREFVAVIYSSDGSTLYADSVKGRFTISADNSKNTAYLQMNSLKPEDTAVYYCAAEPYGSGSSLMSEYDWGQGTLVTVSS
Turning to B6, the “100 nM FACS (MFI Ratio)” value in assay [1] was 6.7 ratio.

B7: CD40L-110 (VHH)
VHH: EVQLVESGGGLVQPGGSLRLSCAASGSSGVINAMGWFRQAPGKEREFIAVIYWRDGSSLYADSVKGRFTISADNSKNTAYLQMNSLKPEDTAVYYCAAEPYGSGSSLISEYDWGQGTLVTVSS
Turning to B7, in assay [1], the “100 nM FACS (MFI Ratio)” value was found to be 4.9 ratio.

B8: CD40L-121 (VHH)
VHH: EVQLVESGGGLVQPGGSLRLSCAASGRTFSTYAMGWFRQAPGKEREFVAVIYSSDGSTLYADSVKGRFTISADNSKNTAYLQMNSLKPEDTAVYYCAAEPYGSGSSLISEYDWGQGTLVTVSS
Consider B8, for which the “100 nM FACS (MFI Ratio)” value in assay [1] was 6.9 ratio.

B9: CD40L-81 (VHH)
VHH: EVQLVESGGGLVQPGGSLRLSCAASGGIFGINAMGWFRQAPGKEREFIAVIYWRDGSSLYADSVKGRFTISADNSKNTAYLQMNSLKPEDTAVYYCAAEPYGSGSSLISEYDWGQGTLVTVSS
For B9, the “100 nM FACS (MFI Ratio)” value in assay [1] came out at 6 ratio.

B10: CD40L-117 (VHH)
VHH: EVQLVESGGGLVQPGGSLRLSCAASGFIGNYHAMGWFRQAPGKEREFIAVIYWRDGSSLYADSVKGRFTISADNSKNTAYLQMNSLKPEDTAVYYCAAEPYGSGSSLISEYDWGQGTLVTVSS
With B10, the “100 nM FACS (MFI Ratio)” value in assay [1] came out at 3.6 ratio.

B11: CD40L-78 (VHH)
VHH: EVQLVESGGGLVQPGGSLRLSCAASGGTFSVFAMGWFRQAPGKEREFVAVIYSSDGSTLYADSVKGRFTISADNSKNTAYLQMNSLKPEDTAVYYCAAEPYGSGSSLISEYDWGQGTLVTVSS
For B11, the “100 nM FACS (MFI Ratio)” value in assay [1] came to 8.2 ratio.

B12: CD40L-109 (VHH)
VHH: EVQLVESGGGLVQPGGSLRLSCAASGSILSINAMGWFRQAPGKEREFVAVIYSSDGSTLYADSVKGRFTISADNSKNTAYLQMNSLKPEDTAVYYCAAEPYGSGSSLMSEYDWGQGTLVTVSS
For the molecule B12, the “100 nM FACS (MFI Ratio)” value in assay [1] came out at 4.7 ratio.

B13: CD40L-83 (VHH)
VHH: EVQLVESGGGLVQPGGSLRLSCAASGRTSNIYAMGWFRQAPGKEREFIAVIYWRDGSSLYADSVKGRFTISADNSKNTAYLQMNSLKPEDTAVYYCAAEPYGSGSSLISEYDWGQGTLVTVSS
Consider B13, for which, in assay [1], the “100 nM FACS (MFI Ratio)” value turned out to be 15.7 ratio.

B14: CD40L-137 (VHH)
VHH: EVQLVESGGGLVQPGGSLRLSCAASGFTFSRYEMGWFRQAPGKEREFVAAIDDGGNTEYADSVKGRFTISADNSKNTAYLQMNSLKPEDTAVYYCAAVYVSTWGNGYDWGQGTLVTVSS
Take B14: in assay [1], the “100 nM FACS (MFI Ratio)” value worked out at 7.7 ratio.

B15: CD40L-134 (VHH)
VHH: EVQLVESGGGLVQPGGSLRLSCAASGFTFSRYEMGWFRQAPGKEREFVATITEGGARNYADSVKGRFTISADNSKNTAYLQMNSLKPEDTAVYYCAAEIGYYSGGTYFSSEAWGQGTLVTVSS
On to B15, for which, in assay [1], the “100 nM FACS (MFI Ratio)” value is 7.3 ratio.

B16: CD40L-64 (VHH)
VHH: EVQLVESGGGLVQPGGSLRLSCAASGFTFSRYEMGWFRQAPGKEREMVAAIDDGGNTEYADSVKGRFTISADNSKNTAYLQMNSLKPEDTAVYYCASDHYDTDTKSDVYNWGQGTLVTVSS
On to B16, for which the “100 nM FACS (MFI Ratio)” value in assay [1] is 19.4 ratio.

B17: CD40L-127 (VHH)
VHH: EVQLVESGGGLVQPGGSLRLSCAASGFTFSRYEMGWFRQAPGKERELVASITNGGSTYYADSVKGRFTISADNSKNTAYLQMNSLKPEDTAVYYCASDHYDTDTKSDVYNWGQGTLVTVSS
As to B17, the “100 nM FACS (MFI Ratio)” value in assay [1] turned out to be 11.9 ratio.

B18: CD40L-147 (VHH)
VHH: EVQLVESGGGLVQPGGSLRLSCAASGFTFSRYEMGWFRQAPGKEREFVATITEGGARNYADSVKGRFTISADNSKNTAYLQMNSLKPEDTAVYYCASDHYDTDTKSDVYNWGQGTLVTVSS
Consider B18, for which the “100 nM FACS (MFI Ratio)” value in assay [1] amounted to 7.4 ratio.

B19: CD40L-88 (VHH)
VHH: EVQLVESGGGLVQPGGSLRLSCAASGFTFDDYDMGWFRQAPGKEREFVAAIDWSGGSTYYADSVKGRFTISADNSKNTAYLQMNSLKPEDTAVYYCASDHYDTDTKSDVYNWGQGTLVTVSS
For B19, the “100 nM FACS (MFI Ratio)” value in assay [1] turned out to be 26 ratio.

B20: CD40L-148 (VHH)
VHH: EVQLVESGGGLVQPGGSLRLSCAASGFTFGNYDMGWFRQAPGKERELVAAISMSGDDAAYADSVKGRFTISADNSKNTAYLQMNSLKPEDTAVYYCASDHYDTDTKSDVYNWGQGTLVTVSS
Turning to B20, in assay [1], the “100 nM FACS (MFI Ratio)” value amounted to 12.5 ratio.

B21: CD40L-86 (VHH)
VHH: EVQLVESGGGLVQPGGSLRLSCAASGRTLTNYDMGWFRQAPGKEREFVAVINSGGGSTQYADSVKGRFTISADNSKNTAYLQMNSLKPEDTAVYYCASDHYDTDTKSDVYNWGQGTLVTVSS
With B21, the “100 nM FACS (MFI Ratio)” value in assay [1] worked out at 8.9 ratio.

B22: CD40L-131 (VHH)
VHH: EVQLVESGGGLVQPGGSLRLSCAASGFTYGNYDMGWFRQAPGKEREFVAAIYPSGRNAYYADSVKGRFTISADNSKNTAYLQMNSLKPEDTAVYYCASDHYDTDTKSDVYNWGQGTLVTVSS
In the case of B22, in assay [1], the “100 nM FACS (MFI Ratio)” value was 12.1 ratio.

B23: CD40L-87 (VHH)
VHH: EVQLVESGGGLVQPGGSLRLSCAASGFTFDDYDMGWFRQAPGKEREFVAAISMSGDDAAYADSVKGRFTISADNSKNTAYLQMNSLKPEDTAVYYCASDHYDTDTKSDVYNWGQGTLVTVSS
For the molecule B23, the “100 nM FACS (MFI Ratio)” value in assay [1] was determined as 18.3 ratio.

B24: CD40L-85 (VHH)
VHH: EVQLVESGGGLVQPGGSLRLSCAASGLNLSRLDMGWFRQAPGKEREFVAAVSGSGDDTYYADSVKGRFTISADNSKNTAYLQMNSLKPEDTAVYYCASDHYDTDTKSDVYNWGQGTLVTVSS
As for B24, the “100 nM FACS (MFI Ratio)” value in assay [1] stood at 42.6 ratio.

B25: CD40L-136 (VHH)
VHH: EVQLVESGGGLVQPGGSLRLSCAASGFTFSDYDMGWFRQAPGKEREFVAAISMSGEDAAYADSVKGRFTISADNSKNTAYLQMNSLKPEDTAVYYCASDHYDTDTKSDVYNWGQGTLVTVSS
With B25, the “100 nM FACS (MFI Ratio)” value in assay [1] stood at 22.4 ratio.

B26: CD40L-143 (VHH)
VHH: EVQLVESGGGLVQPGGSLRLSCAASGRTFSSYDMGWFRQAPGKEREFVAAIDASGGFTEYADSVKGRFTISADNSKNTAYLQMNSLKPEDTAVYYCASDHYDTDTKSDVYNWGQGTLVTVSS
In the case of B26, the “100 nM FACS (MFI Ratio)” value in assay [1] amounted to 8.3 ratio.

B27: CD40L-92 (VHH)
VHH: EVQLVESGGGLVQPGGSLRLSCAASGFTFDDSDMGWFRQAPGKEREFVAAIDASGGFTEYADSVKGRFTISADNSKNTAYLQMNSLKPEDTAVYYCASDHYDTDTKSDVYNWGQGTLVTVSS
For the molecule B27, the “100 nM FACS (MFI Ratio)” value in assay [1] was 6.6 ratio.

B28: CD40L-138 (VHH)
VHH: EVQLVESGGGLVQPGGSLRLSCAASGFTFGNYDMGWFRQAPGKEREFVAVIDTNGGLIAYADSVKGRFTISADNSKNTAYLQMNSLKPEDTAVYYCASDHYDTDTKSDVYNWGQGTLVTVSS
Take B28: in assay [1], the “100 nM FACS (MFI Ratio)” value was 5.1 ratio.
